One block for each binder: values may come before it.
Experiments:
α-syn-biotin monomer [1] = target: T1, α-syn-biotin monomer (mouse, UniProt O55042 1-140); experiment: cell surface binding (SH-SY5Y); LAG3* (no Triton)
[2] = target: α-syn-biotin PFF (biotin-labelled α-synuclein pre-formed fibrils) (mouse, UniProt O55042 1-140); experiment: cell surface binding (SH-SY5Y)
α-syn-biotin monomer [3] = target: T1, α-syn-biotin monomer; experiment: cell surface binding (SH-SY5Y)

Kd (α-syn-biotin monomer [1]): > 3000 nM
B1: LAG3 overexpressed in transfected cells (SH-SY5Y; HEK293FT) (receptor)
chain: LQPGAEVPVVWAQEGAPAQLPCSPTIPLQDLSLLRRAGVTWQHQPDSGPPAAAPGHPLAPGPHPAAPSSWGPRPRRYTVLSVGPGGLRSGRLPLQPRVQLDERGRQRGDFSLWLRPARRADAGEYRAAVHLRDRALSCRLRLRLGQASMTASPPGSLRASDWVILNCSFSRPDRPASVHWFRNRGQGRVPVRESPHHHLAESFLFLPQVSPMDSGPWGCILTYRDGFNVSIMYNLTVLGLEPPTPLTVYAGAGSRVGLPCRLPAGVGTRSFLTAKWTPPGGGPDLLVTGDNGDFTLRLEDVSQAQAGTYTCHIHLQEQQLNATVTLAIITVTPKSFGSPGSLGKLLCEVTPVSGQERFVWSSLDTPSQRSFSGPWLEAQEAQLLSQPWQCQLYQGERLLGAAVYFTELSSPGAQRSGRAPGALPAGHLLLFLILGVLSLLLLVTGAFGFHLWRRQWRPRRFSALEQGIHPPQAQSKIEELEQEPEPEPEPEPEPEPEPEPEQL

Kd [2]: 77 nM
Kd (α-syn-biotin monomer [3]): > 3000 nM
B2: LAG3 (protein)
chain: MWEAQFLGLLFLQPLWVAPVKPLQPGAEVPVVWAQEGAPAQLPCSPTIPLQDLSLLRRAGVTWQHQPDSGPPAAAPGHPLAPGPHPAAPSSWGPRPRRYTVLSVGPGGLRSGRLPLQPRVQLDERGRQRGDFSLWLRPARRADAGEYRAAVHLRDRALSCRLRLRLGQASMTASPPGSLRASDWVILNCSFSRPDRPASVHWFRNRGQGRVPVRESPHHHLAESFLFLPQVSPMDSGPWGCILTYRDGFNVSIMYNLTVLGLEPPTPLTVYAGAGSRVGLPCRLPAGVGTRSFLTAKWTPPGGGPDLLVTGDNGDFTLRLEDVSQAQAGTYTCHIHLQEQQLNATVTLAIITVTPKSFGSPGSLGKLLCEVTPVSGQERFVWSSLDTPSQRSFSGPWLEAQEAQLLSQPWQCQLYQGERLLGAAVYFTELSSPGAQRSGRAPGALPAGHLLLFLILGVLSLLLLVTGAFGFHLWRRQWRPRRFSALEQGIHPPQAQSKIEELEQEPEPEPEPEPEPEPEPEPEQL

— patent US20190194324A1 (published 2019)
